2 molecules from patent publication US20260258141A1 (BIOCYTOGEN PHARMACEUTICALS BEIJING, published 2026) can be followed below.

Assay [1] deals with cynomolgus monkey IGF1R on cells (cynomolgus monkey). Kind of assay: flow cytometry on CHO-S-fasIGF1R cells, antibody 20 µg/mL.
In assay [2] the target is T1, human insulin receptor INSR on cells (human, UniProt P06213 28-1382).
T1 construct: Expressed on CHO-S cells; also called hINSR; CHO-S-hINSR cells
The assay can be described thus: flow cytometry on CHO-S-hINSR cells, antibody 20 µg/mL. The procedure:
INSR (insulin receptor) and IGF1R are both members of the superfamily of receptor tyrosine kinases (RTKs). The binding activity of anti-IGF1R antibodies to human IGF1R, human INSR and monkey IGF1R was verified by flow cytometry. Briefly, CHO-S-hIGF1R cells (expressing human IGF1R (SEQ ID NO: 45), CHO-S-fasIGF1R cells (expressing cynomolgus monkey IGF1R (SEQ ID NO: 46) and CHO-S-hINSR (expressing SEQ ID NO: 47) were plated in a 96-well plate at a density of 2×10⁵ cells/well respectively. Purified anti-IGF1R antibody with a concentration of 20 μg/mL was added to each well and was incubated at 4° C. for 30 minutes. Then, after one wash with PBS, the cells were incubated with the secondary antibody Alexa Fluor® 647 anti-human IgG Fcγ (Jackson ImmunoResearch Laboratories, Inc., Cat #: 109-606-170) at 4° C. for 15 minutes before flow cytometry analysis. Human IgG1 was used as ISO control.
On the technique in general: A flow cytometer gives signals particle by particle.

For assay [3], the target named is human IGF1R (insulin-like growth factor 1 receptor) on cells (human) (UniProt P08069). The assay can be described thus: flow cytometry on CHO-S-hIGF1R cells, antibody 20 µg/mL.
Chain of human IGF1R (insulin-like growth factor 1 receptor) on cells (human) (P08069 31-1367 limits assumed): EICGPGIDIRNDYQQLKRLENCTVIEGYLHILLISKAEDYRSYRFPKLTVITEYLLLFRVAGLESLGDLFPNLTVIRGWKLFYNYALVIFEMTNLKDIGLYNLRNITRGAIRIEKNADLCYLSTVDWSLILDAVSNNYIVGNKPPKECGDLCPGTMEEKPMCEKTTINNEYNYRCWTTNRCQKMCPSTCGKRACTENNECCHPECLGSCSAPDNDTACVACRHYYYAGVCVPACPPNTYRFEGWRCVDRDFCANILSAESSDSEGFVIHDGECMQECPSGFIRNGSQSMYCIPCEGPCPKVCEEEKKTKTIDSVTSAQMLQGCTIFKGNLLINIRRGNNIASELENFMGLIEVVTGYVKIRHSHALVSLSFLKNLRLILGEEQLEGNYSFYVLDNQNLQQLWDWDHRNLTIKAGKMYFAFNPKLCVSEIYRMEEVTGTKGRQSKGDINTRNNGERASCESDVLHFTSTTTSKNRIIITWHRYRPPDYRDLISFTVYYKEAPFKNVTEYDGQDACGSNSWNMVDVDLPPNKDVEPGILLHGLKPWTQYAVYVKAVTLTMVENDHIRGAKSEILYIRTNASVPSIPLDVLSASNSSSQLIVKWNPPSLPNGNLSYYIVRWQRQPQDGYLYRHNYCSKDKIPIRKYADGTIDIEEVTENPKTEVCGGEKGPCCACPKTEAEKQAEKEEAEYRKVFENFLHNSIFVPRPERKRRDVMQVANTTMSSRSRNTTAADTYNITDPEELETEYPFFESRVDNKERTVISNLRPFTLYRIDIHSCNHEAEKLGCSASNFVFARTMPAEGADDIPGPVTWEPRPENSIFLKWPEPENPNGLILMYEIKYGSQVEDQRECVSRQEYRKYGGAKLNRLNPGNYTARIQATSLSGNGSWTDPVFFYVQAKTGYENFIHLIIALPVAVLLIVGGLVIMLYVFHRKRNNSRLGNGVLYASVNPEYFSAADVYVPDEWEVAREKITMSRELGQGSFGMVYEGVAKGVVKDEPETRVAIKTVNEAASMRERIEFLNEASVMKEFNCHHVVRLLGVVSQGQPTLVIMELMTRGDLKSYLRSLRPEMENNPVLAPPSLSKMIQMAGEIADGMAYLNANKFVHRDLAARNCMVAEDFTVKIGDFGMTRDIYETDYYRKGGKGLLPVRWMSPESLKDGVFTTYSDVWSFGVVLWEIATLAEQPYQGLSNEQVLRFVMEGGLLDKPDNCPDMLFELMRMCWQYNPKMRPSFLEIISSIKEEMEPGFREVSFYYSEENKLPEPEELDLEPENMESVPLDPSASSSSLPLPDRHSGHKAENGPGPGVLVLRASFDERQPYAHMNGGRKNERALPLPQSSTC

T1 sequence (P06213 other isoform, or with tags, fused parts or gaps limits assumed): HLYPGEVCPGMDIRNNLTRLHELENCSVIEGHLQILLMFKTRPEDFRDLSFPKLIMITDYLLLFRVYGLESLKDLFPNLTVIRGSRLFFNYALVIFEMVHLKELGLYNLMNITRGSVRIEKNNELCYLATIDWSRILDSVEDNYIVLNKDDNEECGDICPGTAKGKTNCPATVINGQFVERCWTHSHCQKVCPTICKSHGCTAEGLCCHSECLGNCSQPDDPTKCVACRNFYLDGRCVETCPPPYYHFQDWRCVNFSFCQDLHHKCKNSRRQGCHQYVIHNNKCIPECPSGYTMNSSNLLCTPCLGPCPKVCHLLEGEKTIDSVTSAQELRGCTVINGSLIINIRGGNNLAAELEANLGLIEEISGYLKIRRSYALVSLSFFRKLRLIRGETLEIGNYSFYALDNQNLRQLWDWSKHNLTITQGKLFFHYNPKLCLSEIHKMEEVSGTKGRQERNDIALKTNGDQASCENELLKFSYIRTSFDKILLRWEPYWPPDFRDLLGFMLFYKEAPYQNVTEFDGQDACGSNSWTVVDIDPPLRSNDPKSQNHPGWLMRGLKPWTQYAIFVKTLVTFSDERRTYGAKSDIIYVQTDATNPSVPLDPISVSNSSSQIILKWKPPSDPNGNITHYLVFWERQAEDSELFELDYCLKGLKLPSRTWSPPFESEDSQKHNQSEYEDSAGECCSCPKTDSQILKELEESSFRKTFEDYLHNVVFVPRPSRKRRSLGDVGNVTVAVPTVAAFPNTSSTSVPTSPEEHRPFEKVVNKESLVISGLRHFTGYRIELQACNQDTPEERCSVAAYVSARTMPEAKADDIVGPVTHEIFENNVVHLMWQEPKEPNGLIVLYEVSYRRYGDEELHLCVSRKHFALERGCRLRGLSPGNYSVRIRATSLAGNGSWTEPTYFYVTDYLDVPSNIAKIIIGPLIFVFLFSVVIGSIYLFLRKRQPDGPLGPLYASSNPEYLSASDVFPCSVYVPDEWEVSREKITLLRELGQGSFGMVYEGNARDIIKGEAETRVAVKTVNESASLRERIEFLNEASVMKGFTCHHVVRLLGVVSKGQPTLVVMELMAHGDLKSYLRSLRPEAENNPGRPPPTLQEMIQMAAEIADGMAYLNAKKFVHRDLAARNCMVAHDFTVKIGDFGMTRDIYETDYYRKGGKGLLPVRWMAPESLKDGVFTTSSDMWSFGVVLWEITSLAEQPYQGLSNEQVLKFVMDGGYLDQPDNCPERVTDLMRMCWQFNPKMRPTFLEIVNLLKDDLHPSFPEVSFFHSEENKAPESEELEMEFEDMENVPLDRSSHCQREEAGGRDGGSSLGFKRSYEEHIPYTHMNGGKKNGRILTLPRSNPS
Chain of cynomolgus monkey IGF1R on cells (cynomolgus monkey) (P08069 other isoform, or with tags, fused parts or gaps limits assumed): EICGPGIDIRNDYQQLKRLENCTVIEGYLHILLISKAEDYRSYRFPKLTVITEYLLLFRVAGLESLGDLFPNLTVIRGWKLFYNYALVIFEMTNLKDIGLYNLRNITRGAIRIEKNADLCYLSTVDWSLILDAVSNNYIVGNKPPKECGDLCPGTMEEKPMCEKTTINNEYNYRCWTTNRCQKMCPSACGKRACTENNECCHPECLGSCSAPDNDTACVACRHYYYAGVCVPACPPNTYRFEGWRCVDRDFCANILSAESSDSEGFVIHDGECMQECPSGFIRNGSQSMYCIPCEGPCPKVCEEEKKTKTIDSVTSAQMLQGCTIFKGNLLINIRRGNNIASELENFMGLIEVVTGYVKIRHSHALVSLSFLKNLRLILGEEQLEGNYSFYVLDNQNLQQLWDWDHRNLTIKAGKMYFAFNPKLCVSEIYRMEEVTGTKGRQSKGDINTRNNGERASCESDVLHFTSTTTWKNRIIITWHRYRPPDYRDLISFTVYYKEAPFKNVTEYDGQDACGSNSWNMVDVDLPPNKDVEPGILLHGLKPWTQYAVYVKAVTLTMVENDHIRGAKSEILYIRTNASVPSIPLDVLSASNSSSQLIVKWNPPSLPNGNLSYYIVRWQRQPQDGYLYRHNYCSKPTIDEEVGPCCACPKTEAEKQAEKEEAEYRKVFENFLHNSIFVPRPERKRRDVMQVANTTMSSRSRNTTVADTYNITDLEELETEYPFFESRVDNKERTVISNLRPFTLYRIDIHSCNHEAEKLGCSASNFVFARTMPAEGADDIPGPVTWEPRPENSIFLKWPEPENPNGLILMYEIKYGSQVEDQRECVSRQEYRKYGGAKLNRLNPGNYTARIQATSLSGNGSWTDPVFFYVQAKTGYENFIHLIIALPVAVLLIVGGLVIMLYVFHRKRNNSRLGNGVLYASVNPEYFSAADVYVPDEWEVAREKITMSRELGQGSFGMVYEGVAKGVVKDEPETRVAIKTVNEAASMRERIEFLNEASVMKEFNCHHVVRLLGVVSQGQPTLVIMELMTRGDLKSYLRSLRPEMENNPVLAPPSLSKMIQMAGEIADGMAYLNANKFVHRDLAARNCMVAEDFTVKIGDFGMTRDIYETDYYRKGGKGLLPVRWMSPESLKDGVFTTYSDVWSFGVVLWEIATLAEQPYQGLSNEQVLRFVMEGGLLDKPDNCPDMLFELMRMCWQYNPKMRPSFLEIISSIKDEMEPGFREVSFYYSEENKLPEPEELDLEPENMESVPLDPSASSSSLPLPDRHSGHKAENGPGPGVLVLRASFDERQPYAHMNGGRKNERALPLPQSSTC

As for Human IgG1 ISO control (antibody), the Percentage of positive cells in assay [1] is 0.3%; in assay [2] it was 0.4%; in assay [3], 0.7%.

B1: Teprotumumab analog (antibody, V domains shown)
VH: QVELVESGGGVVQPGRSQRLSCAASGFTFSSYGMHWVRQAPGKGLEWVAIIWFDGSSTYYADSVRGRFTISRDNSKNTLYLQMNSLRAEDTAVYFCARELGRRYFDLWGRGTLVSVSS
VL: EIVLTQSPATLSLSPGERATLSCRASQSVSSYLAWYQQKPGQAPRLLIYDASKRATGIPARFSGSGSGTDFTLTISSLEPEDFAVYYCQQRSKWPPWTFGQGTKVESKR
notes: also called positive control
Regarding B1, in assay [2], the “Percentage of positive cells” value came out at 1.5%.
